According to the supplement of paper PMC11246515:
± gives the standard deviation of the averaged measurements.

Assay: total protein half-life in vivo (active degradation + dilution); higher = more stable protein
[1] = E. coli NCM3722 delta-clpP delta-lon delta-hslV, growth: N-lim chemostat, doubling time 6 h
[2] = E. coli NCM3722 delta-clpP, growth: N-lim chemostat, doubling time 6 h
[3] = E. coli NCM3722 delta-hslV, growth: N-lim chemostat, doubling time 6 h
[4] = E. coli NCM3722 delta-lon, growth: N-lim chemostat, doubling time 6 h
[5] = E. coli NCM3722 delta-smpB, growth: N-lim chemostat, doubling time 6 h
[6] = wild type E. coli NCM3722, growth: C-lim chemostat, doubling time 3 h
[7] = wild type E. coli NCM3722, growth: C-lim chemostat, doubling time 12 h
[8] = wild type E. coli NCM3722, growth: N-lim chemostat, doubling time 6 h
[9] = wild type E. coli NCM3722, growth: N-lim chemostat, doubling time 12 h
[10] = wild type E. coli NCM3722, growth: P-lim chemostat, doubling time 6 h
[11] = wild type E. coli NCM3722, growth: P-lim chemostat, doubling time 12 h
[12] = wild type E. coli NCM3722, growth: C-lim chemostat, doubling time 6 h

| Sequence | total protein half-life in vivo [1] [h] | total protein half-life in vivo [2] [h] | total protein half-life in vivo [3] [h] | total protein half-life in vivo [4] [h] | total protein half-life in vivo [5] [h] | total protein half-life in vivo [6] [h] | total protein half-life in vivo [7] [h] | total protein half-life in vivo [8] [h] | total protein half-life in vivo [9] [h] | total protein half-life in vivo [10] [h] | total protein half-life in vivo [11] [h] | total protein half-life in vivo [12] [h] |
| --- | --- | --- | --- | --- | --- | --- | --- | --- | --- | --- | --- | --- |
| MNKYQAVIIGFGKAGKTLAVTLAKAGWRVALIEQSNAMYGGTCINIGCIPTKTLVHDAQQHTDFVRAIQRKNEVVNFLRNKNFHNLADMPNIDVIDGQAEFINNHSLRVHRPEGNLEIHGEKIFINTGAQTVVPPIPGITTTPGVYDSTGLLNLKELPGHLGILGGGYIGVEFASMFANFGSKVTILEAASLFLPREDRDIADNIATILRDQGVDIILNAHVERISHHENQVQVHSEHAQLAVDALLIASGRQPATASLHPENAGIAVNERGAIVVDKRLHTTADNIWAMGDVTGGLQFTYISLDDYRIVRDELLGEGKRSTDDRKNVPYSVFMTPPLSRVGMTEEQARESGADIQVVTLPVAAIPRARVMNDTRGVLKAIVDNKTQRMLGASLLCVDSHEMINIVKMVMDAGLPYSILRDQIFTHPSMSESLNDLFSLVK | 5.58 ± 0.12 | 4.727 ± 0.039 | 4.73 ± 0.26 | 5.53 ± 0.24 | 4.9 ± 0.99 | 3.31 ± 0.05 | 10.4 ± 1 | 4.71 ± 0.29 | 8.5 ± 0.62 | 6 ± 0.4 | 12 ± 1.2 | – |
| MNLDDKSLFLDAMEDVQPLKRATDVHWHPTRNQRAPQRIDTLQLDNFLTTGFLDIIPLSQPLEFRREGLQHGVLDKLRSGKYPQQASLNLLRQPVEECRKMVFSFIQQALADGLRNVLIIHGKGRDDKSHANIVRSYVARWLTEFDDVQAYCTALPHHGGSGACYVALRKTAQAKQENWERHAKRSR | – | 3.15 ± 0.09 | 0.92 ± 0.056 | – | 0.889 | 0.985 | 1.42 | 1.06 ± 0.055 | 1.33 ± 0.064 | 1.28 | 1.8 ± 0.54 | 1.35 |
| MNLEKINELTAQDMAGVNAAILEQLNSDVQLINQLGYYIVSGGGKRIRPMIAVLAARAVGYEGNAHVTIAALIEFIHTATLLHDDVVDESDMRRGKATANAAFGNAASVLVGDFIYTRAFQMMTSLGSLKVLEVMSEAVNVIAEGEVLQLMNVNDPDITEENYMRVIYSKTARLFEAAAQCSGILAGCTPEEEKGLQDYGRYLGTAFQLIDDLLDYNADGEQLGKNVGDDLNEGKPTLPLLHAMHHGTPEQAQMIRTAIEQGNGRHLLEPVLEAMNACGSLEWTRQRAEEEADKAIAALQVLPDTPWREALIGLAHIAVQRDR [P0AD57] | 4.19 ± 0.56 | 4.1 ± 0.06 | 3.69 ± 0.19 | 5.2 ± 0.3 | 4.09 ± 0.18 | 3.02 ± 0.1 | 9.86 ± 0.44 | 3.93 ± 0.17 | 6.372 ± 0.062 | 5.64 ± 0.61 | 11.4 ± 0.24 | 5.42 ± 0.15 |
| MNLKLQLKILSFLQFCLWGSWLTTLGSYMFVTLKFDGASIGAVYSSLGIAAVFMPALLGIVADKWLSAKWVYAICHTIGAITLFMAAQVTTPEAMFLVILINSFAYMPTLGLINTISYYRLQNAGMDIVTDFPPIRIWGTIGFIMAMWVVSLSGFELSHMQLYIGAALSAILVLFTLTLPHIPVAKQQANQSWTTLLGLDAFALFKNKRMAIFFIFSMLLGAELQITNMFGNTFLHSFDKDPMFASSFIVQHASIIMSISQISETLFILTIPFFLSRYGIKNVMMISIVAWILRFALFAYGDPTPFGTVLLVLSMIVYGCAFDFFNISGSVFVEKEVSPAIRASAQGMFLMMTNGFGCILGGIVSGKVVEMYTQNGITDWQTVWLIFAGYSVVLAFAFMAMFKYKHVRVPTGTQTVSH [P0AFF4] | – | – | > 8 | – | – | 1.79 | 10.8 ± 2.5 | – | 4.5 | – | – | 6.63 |
| MNLLTVSTDLISIFLFTTLFLFFARKVAKKVGLVDKPNFRKRHQGLIPLVGGISVYAGICFTFGIVDYYIPHASLYLACAGVLVFIGALDDRFDISVKIRATIQAAVGIVMMVFGKLYLSSLGYIFGSWEMVLGPFGYFLTLFAVWAAINAFNMVDGIDGLLGGLSCVSFAAIGMILWFDGQTSLAIWCFAMIAAILPYIMLNLGILGRRYKVFMGDAGSTLIGFTVIWILLETTQGKTHPISPVTALWIIAIPLMDMVAIMYRRLRKGMSPFSPDRQHIHHLIMRAGFTSRQAFVLITLAAALLASIGVLAEYSHFVPEWVMLVLFLLAFFLYGYCIKRAWKVARFIKRVKRRLRRNRGGSPNLTK [P0AC78] | – | 6.35 | 5.89 ± 0.39 | 5.27 ± 0.83 | 5.8 ± 0.18 | 3.68 ± 0.28 | 11.8 ± 2.3 | 6.03 | 10.4 | 6.33 ± 0.36 | – | 5.75 |
| MNLQRFDDSTLIRIFALHELHRLKEHGLTRGALLDYHSRYKLVFLAHSQPEYRKLGPFVADIHQWQNLDDYYNQYRQRVVVLLSHPANPRDHTNVLMHVQGYFRPHIDSTERQQLAALIDSYRRGEQPLLAPLMRIKHYMALYPDAWLSGQRYFELWPRVINLRHSGVL | 5.09 ± 0.47 | 4.66 ± 0.34 | 4.914 ± 0.015 | 5.47 ± 0.14 | 4.55 ± 0.27 | – | 11.2 | 4.54 ± 0.59 | 7.5 ± 0.48 | 5.11 ± 0.081 | 12 ± 0.13 | 5.12 |
| MNLTLKESLVTRSRVFSPWTAFYFLQSLLINLGLGYPFSLLYTAAFTAILLLLWRTLPRVQKVLVGVSSLVAACYFPFAQAYGAPNFNTLLALHSTNMEESTEILTIFPWYSYLVGLFIFALGVIAIRRKKENEKARWNTFDSLCLVFSVATFFVAPVQNLAWGGVFKLKDTGYPVFRFAKDVIVNNNEVIEEQERMAKLSGMKDTWTVTAVKPKYQTYVVVIGESARRDALGAFGGHWDNTPFASSVNGLIFADYIAASGSTQKSLGLTLNRVVDGKPQFQDNFVTLANRAGFQTWWFSNQGQIGEYDTAIASIAKRADEVYFLKEGNFEADKNTKDEALLDMTAQVLAQEHSQPQLIVLHLMGSHPQACDRTQGKYETFVQSKETSCYLYTMTQTDDLLRKLYDQLRNSGSSFSLVYFSDHGLAFKERGKDVQYLAHDDKYQQNFQVPFMVISSDDKAHRVIKARRSANDFLGFFSQWTGIKAKEINIKYPFISEKKAGPIYITNFQLQKVDYNHLGTDIFDPKP | 4.78 ± 0.78 | 4.97 ± 0.21 | 5.49 ± 1.6 | 5.01 | 3.31 ± 0.29 | 2.94 ± 0.12 | 10.2 ± 1.1 | 4.59 ± 0.6 | 10.2 | – | 8.42 | – |
| MNNDNTDYVSNESGTLSRLFKLPQHGTTVRTELIAGMTTFLTMVYIVFVNPQILGAAQMDPKVVFVTTCLIAGIGSIAMGIFANLPVALAPAMGLNAFFAFVVVGAMGISWQTGMGAIFWGAVGLFLLTLFRIRYWMISNIPLSLRIGITSGIGLFIALMGLKNTGVIVANKDTLVMIGDLSSHGVLLGILGFFIITVLSSRHFHAAVLVSIVVTSCCGLFFGDVHFSGVYSIPPDISGVIGEVDLSGALTLELAGIIFSFMLINLFDSSGTLIGVTDKAGLIDGNGKFPNMNKALYVDSVSSVAGAFIGTSSVTAYIESTSGVAVGGRTGLTAVVVGVMFLLVMFFSPLVAIVPPYATAGALIFVGVLMTSSLARVNWDDFTESVPAFITTVMMPFTFSITEGIALGFMSYCIMKVCTGRWRDLNLCVVVVAALFALKIILVD | – | – | – | – | – | 3.27 | – | – | – | – | – | 5.84 |
